This is an account of results in publication PMC10184537 (ACS Nano, 2023).

This assay has as its target murine urokinase-type plasminogen activator (murine, UniProt P06869). Nature of the assay: […].

murine urokinase-type plasminogen activator, sequence (P06869 21-433): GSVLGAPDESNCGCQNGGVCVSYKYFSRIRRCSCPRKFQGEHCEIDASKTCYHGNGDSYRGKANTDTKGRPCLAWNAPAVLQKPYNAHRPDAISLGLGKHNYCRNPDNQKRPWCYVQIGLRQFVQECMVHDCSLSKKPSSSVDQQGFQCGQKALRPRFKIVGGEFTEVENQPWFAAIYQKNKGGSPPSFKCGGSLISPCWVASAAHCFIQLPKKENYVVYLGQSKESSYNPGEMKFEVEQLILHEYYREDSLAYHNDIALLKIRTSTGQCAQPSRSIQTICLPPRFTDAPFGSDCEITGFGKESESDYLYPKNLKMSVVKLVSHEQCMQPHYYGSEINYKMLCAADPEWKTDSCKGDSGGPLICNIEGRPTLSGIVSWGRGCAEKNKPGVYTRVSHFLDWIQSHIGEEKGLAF

B1: nb22 nanobody (VHH)
VHH: QVQLQESGGGLVQAGGSLRLSCAASGRTFSSYVMGWFRQAPGKEREFVAAISWSGGSTNYADSVKGRFTISRDNAKNTVYLQMNSLKPEDTAVYYCAADLASSRDVSSWYWGQGTQVTVSS
In the case of B1, the binding result is on record as “binds”.
